Assay results published in US20190002548A1 (Chugai, published 2019).
Substitutions are numbered along the chain they refer to. Names and notes keep the numbering of the source. Read-outs that look alike come from different tables or passages of the source. Blank lines part the entries; values can stand above or below the binder they belong to.

What was measured:
[1] = target: T1, Human mature myostatin (myostatin mature form; recombinant mature myostatin) (human (mature form 100% identical in …, UniProt O08689 268-376 (mouse entry), biotinylated in the Biacore assay (immobilized on a streptavidin chip); not labelled in the HEK Blue Assay); assay: cell-based or functional assay
T1 sequence: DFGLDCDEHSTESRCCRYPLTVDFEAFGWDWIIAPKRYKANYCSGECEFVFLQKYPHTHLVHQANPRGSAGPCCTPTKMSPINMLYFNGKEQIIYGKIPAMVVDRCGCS

[2] = target: T1, Human mature myostatin (myostatin …); assay: SPR, Biacore T200, 37 degrees C; biotinylated mature myostatin on streptavidin chip; ratio of dissociation rates
Procedure: (§1) pH dependent binding of MST0226 variants to human mature myostatin were determined at 37 degrees C. using Biacore T200 instrument (GE Healthcare). Biotinylated mature myostatin was immobilized onto streptavidin sensor chip (GE Healthcare). In order to assess pH dependent binding of MST0226 variants to mature myostatin, 100 nM of antibodies were injected over mature myostatin sensor surface at pH 7.4 (20 mM ACES, 150 mM NaCl, 1.2 mM CaCl₂), 0.05% Tween 20, 0.005% NaN₃), followed by dissociation at pH 7.4 and an additional dissociation phase at pH5.8. This is to assess the pH-dependent dissociation of antibody/antigen complexes formed at pH 7.4. The dissociation rate (kd) at both pH 7.4 and pH 5.8 buffer was determined by processing and fitting data using Scrubber 2.0 (BioLogic Software) curve fitting software. The ratio of (kd at pH5.8)/(kd at pH 7.4) gives indication of pH dependent binding, e.g. ratio>1 indicates pH dependent binding. The sensor surface was regenerated each cycle with 10 mM Glycine-HCl, pH 1.7.

[3] = target: T1, Human mature myostatin (myostatin …); assay: SPR (Biacore T200, 37 degrees C), biotinylated mature myostatin on streptavidin chip, 100 nM antibody, dissociation at pH 7.4 then pH 5.8
Procedure: as §1

[4] = target: T1, Human mature myostatin (myostatin …); assay: SPR, Biacore T200, 37 degrees C; biotinylated mature myostatin on streptavidin chip, 100 nM antibody bound at pH 7.4; dissociation phase at pH 5.8
Procedure: as §1

[5] = target: T1, Human mature myostatin (myostatin …); assay: SPR, Biacore T200, 37 degrees C; biotinylated mature myostatin on streptavidin chip, 100 nM antibody bound at pH 7.4; dissociation phase at pH 7.4
Procedure: as §1

[6] = target: T1, Human mature myostatin (myostatin …); assay: cell-based or functional assay; remark: listed apart in the source

B2: MS_M22601H1020-SG1/M22608L0744-SK1 (antibody, human IgG1, kappa, V domains shown)
VH: EVQLVESGGGLVQPGGSLRLSCAVSGFTLSHYVKGWVRQAPGKGLEWIGIINISGSTYYASWAKGRFTISRDNSKNTVYLQMNSLRAEDTAVYFCARGHDNFGYSYHDFNLWGQGTLVTVSS
VL: AVVMTQSPATLSLSPGERVTLSCQASQSIHHELSWYQQKPGQPPKLLIYLASTLASGVPSRFKGSGSGTDFTLTISSLQPEDAATYYCQTYDGISHYGVAFGQGTKVEIKR
notes: pH-dependent variant of MSLO00-SG1; also called MSLO01-SG1; LO01-SG1
Ratio of (kd pH 5.8)/(kd pH 7.4) [2]: 17.4
ratio of (kd at pH5.8)/(kd at pH 7.4) [3]: 17
koff [4]: 0.00228 s⁻¹
koff [5]: 0.000131 s⁻¹

B4: MS_M22601H1080-SG1/M22608L0837-SK1 (antibody, human IgG1, kappa, V domains shown)
VH: B2 VH with S54E, K64E
VL: B2 VL with Q27E
notes: pH-dependent variant of MSLO00-SG1; also called MSLO02-SG1; LO02-SG1
Ratio of (kd pH 5.8)/(kd pH 7.4) [2]: 26.2
ratio of (kd at pH5.8)/(kd at pH 7.4) [3]: 17
koff [4]: 0.00254 s⁻¹
koff [5]: 9.7e-05 s⁻¹

B5: MS_M22601H1080-SG1/M22608L0846-SK1 (antibody, human IgG1, kappa, V domains shown)
VH: B2 VH with S54E, K64E
VL: B2 VL with E32D
notes: pH-dependent variant of MSLO00-SG1; also called MSLO04-SG1; LO04-SG1
IC50 (read off the curve); HEK Blue Assay (SEAP reporter, OD620) [6]: ~6 ng/mL
Ratio of (kd pH 5.8)/(kd pH 7.4) [2]: 25.9
ratio of (kd at pH5.8)/(kd at pH 7.4) [3]: 17
koff [4]: 0.00109 s⁻¹
koff [5]: 4.19e-05 s⁻¹

Further lines, results first:

IC50 (read off the curve); HEK Blue Assay (SEAP reporter, OD620) [1]: ~4 ng/mL
B1: MS_MST0095Hf-G1m/MST0095Lf-kOMTC (antibody, human IgG1, kappa, V domains shown)
VH: QSVEESGGRLVTPGTPLTLTCTASGFSLSSYYMSWVRQAPGKGLEWIGIISSRGSTYYASWAKGRFTISKTSTTVDLKITSPTTEDTATYFCARGVVLWGPGTLVTVSS
VL: ALVMTQTPASVSAAVGGTVTINCQASESIYSGLAWYQQKPGQPPKLLIYSASTLASGVPSRFRGSGSGTEYTLTINDLECADAATYYCQAYDSTNWTFGGGTEVVVKR

Ratio of (kd pH 5.8)/(kd pH 7.4) [2]: 26.8
ratio of (kd at pH5.8)/(kd at pH 7.4) [3]: 17
koff [4]: 0.00321 s⁻¹
koff [5]: 0.00012 s⁻¹
B3: MS_M22601H1082-SG1/M22608L0837-SK1 (antibody, human IgG1, kappa, V domains shown)
VH: B2 VH with S54E, S56E
VL: B2 VL with Q27E
notes: pH-dependent variant of MSLO00-SG1; also called MSLO03-SG1; LO03-SG1

Ratio of (kd pH 5.8)/(kd pH 7.4) [2]: 0.8
koff [4]: 6.04e-05 s⁻¹
koff [5]: 7.82e-05 s⁻¹
B6: MS_M22601H-SG1/M22608L-SK1 (antibody, human IgG1, kappa, V domains shown)
VH: B2 VH with H31N, K34M, H99G, H107I
VL: B2 VL with H30S, H31N, H96S
notes: Humanized form of MST0226-G1m; the non pH-dependent antibody; also called MSLO00-SG1; LO00-SG1

IC50 (read off the curve); HEK Blue Assay (SEAP reporter, OD620) [1]: ~7 ng/mL
B7: MS_MST0226Hc-G1m/MST0226La-kOMTC (antibody, human IgG1, kappa, V domains shown)
VH: QSVEESGGRLVTPGGSLTLTCTVSGFSLSNYVMGWVRQAPGKGLEWIGIINISGSTYYASWAKGRFTISRTSTTVDLKMTSLTTEDTATYFCARGGDNFGYSYIDFNLWGPGTLVTVSS
VL: AVVMTQTPASVSEPVGGTVTIKCQASQSISNELSWYRQKPGQPPKLLIYLASTLASGVPSRFKGSGSGTDFTLTISDLECADAATYYCQTYDGISSYGVAFGGGTKVVVER
